# In the RNAGym collection of RNA variant scans (doi:10.7554/elife.90254):
# B1: LINE1-full (parent)
# chain: UACGUAGGUGGUUUUCCCCUGAUAGUGCUAAGGGGGCCUGGAAGUUUGGACUGGGCAGAGCUCAACACAGCGUGGCAAAGUGGCUGUGGCUAGACUGCCUCUCUGGAUUCCUCGUCACUCAGCAGGGCAUCUCUGAGAGAAAUGCC
# Variants of: B1
# Assay: self-cleavage, relative activity (ratio to wild type); higher = more cleavage; in vitro, sequencing; the parent is a self-cleaving ribozyme
row,Variant,self-cleavage
1,UACGUAGGUGGUUUUCCCCUGAUAGUGCUAAGGGGGCCUGGAAGUUUGGACUGGGCAGAGCUCAACACAGCGUGGCAAAGUGGCUGUGGCUAGACUUCCUCUCUGGAUUCCUCGUCACUCAGCAGGACAUCUCUGAGAGAAAUGCC [G97U G127A],0.04
2,UACGUAGGUGGUUUUCCCCUGGUAGUGCUAAGGGGGCCUGGAAGUUUGGACUGGGCAGAGCUCAACACAGCGUGGCAAAGUGGCUGUGGCUAGACUGCCUCUCUGGAUUCCUCGUCACUCAGCAGGGCAUUUCUGAGAGAAAUGCC [A22G C131U],1.03
3,UACGUAGGUGGUUUUCCCCUGAUAGUGCUAAAGGGGCCUGGAAGUUUGGACUGGGCAGAGCUCAACACAGCGUGGCAAAGUGGCUGUGGCUAGCCUGCCUCUCUGGAUUCCUCGUCACUCAGCAGGGCAUCUCUGAGAGAAAUGCC [G32A A94C],0.04
4,UACGUAGGUGGUUUUCCCCUGAUAGUGCUAAGGGGGCCUGGAAGUUUGGACUGGGCAUAGCUCAACACAGCGUGGCAAAGUGGCUGUGGCUAGACUGCCCCUCUGGAUUCCUCGUCACUCAGCAGGGCAUCUCUGAGAGAAAUGCC [G58U U100C],0.09
5,UACGUAGGUGGUUUUCCCCUGAUAGUGCUAAGGGGGCCUGGAAGUUUGGACUGGGCAGAGCUCAACACAGCGUGGCAAAGUGGCUGUGGCUAGACUGCCUCUCUGGAUUCCUCGUCACUCGGCAGGGCAUCUCUGAGAGGAAUGCC [A121G A140G],1.84
6,UACGUAGGUGGUUUUCCCCUGAUAGUGCUAUGGGGGCCUGGAAGUUUGGACUGGGCAGAGCUCAACACAGCGUGGCAAAGUGGCUGUGGCUAGACUGCCUCUCUGGAUUCCUCGGCACUCAGCAGGGCAUCUCUGAGAGAAAUGCC [A31U U115G],0.37
7,UACGUAGGUGGUUUUCCCCUGAUAGUGCUAAGGGGGCCAGGAAGUUUGGACUGGGCAGAGCUCAACACAGCGUGGCAAAGUGGCUGUAGCUAGACUGCCUCUCUGGAUUCCUCGUCACUCAGCAGGGCAUCUCUGAGAGAAAUGCC [U39A G88A],0.08
8,UACGUAGGUGGUUUUCCCCUGAUCGUGCUAAGGGGGCCUGGAAGUUUGGACUGGGCAGAGCUCAACACAGCGUGGCAAAGUGGCUGUGGCUAGACUGCCUCUCUGGAUACCUCGUCACUCAGCAGGGCAUCUCUGAGAGAAAUGCC [A24C U109A],2.55
9,UACGUAGGUGGUUUUCCCCUGAUAGUGCUAAGGGGGCCUGGAAGUUUGGGCUGGGCAGAGCUCAACACGGCGUGGCAAAGUGGCUGUGGCUAGACUGCCUCUCUGGAUUCCUCGUCACUCAGCAGGGCAUCUCUGAGAGAAAUGCC [A50G A69G],0.35
10,UACGUAGGUGGUUUUCCCCUGAUAGUGCUAAGGGGGCCUGGAAGUUUGGACUGGGCAGAGCUCAACACAGCGUGGCAAAGUGGCUGUGGCUAGACUGCCUCUCUGGAUUCCUCGUCACUCAGCAGGCCAUCUCUGAGGGAAAUGCC [G127C A138G],1.31
11,UACGUAGGUGGUUUUCCCCUGAUAGUGCUAAGGGGGCCUGGAAGUUUGGACUGGGCUGAGCUCAACACAGCGUGGCAAAGUGGCUGUGGCUAGACUGCCUCUCUGGAUUCCUCGUCUCUCAGCAGGGCAUCUCUGAGAGAAAUGCC [A57U A117U],0.13
12,UACGUAGGUGGUUUUCCCAUGAUAGUGCUAAGGGGGCCUGGAAGUUUGGACUGGGCAGAGCUCAACACAGCGUGGCAAAGUGGCUGUGGCUAGACUGCCUCUCUGGAUUCCCCGUCACUCAGCAGGGCAUCUCUGAGAGAAAUGCC [C19A U112C],1.55
13,UACGUAGGUGGUUUUCCCCUGAUAGUGCUAAGGGGGCCUGGAAGUUUGGACUGGGCAGAGCUCAACACAGCGUGGCAAAGUAGCUGUGGCUAGACUGCCUCUCUGGAUUCCUCGUCACUCAGCAGGGCAACUCUGAGAGAAAUGCC [G82A U130A],1.97
14,UACGUAGGUGGGUUUCCCCUGAUAGUGCUAAGGGGGCCUGGCAGUUUGGACUGGGCAGAGCUCAACACAGCGUGGCAAAGUGGCUGUGGCUAGACUGCCUCUCUGGAUUCCUCGUCACUCAGCAGGGCAUCUCUGAGAGAAAUGCC [U12G A42C],1.1
15,UACGUAGGUGGUUUUCCCCUGAUAGUGCUAAGGGGGCCUGGAAGUUUGGACCGGGCAGAGCUCAACACAGCGUGGCAAAGUGGCUGUGGCUAGACUGCCUCUCUGGAUUCCUCGACACUCAGCAGGGCAUCUCUGAGAGAAAUGCC [U52C U115A],1.34
16,UACGUAGGUGGUUUUCCCCUGAUAGUGCUAUGGGGGCCUGGAAGUUUGGACAGGGCAGAGCUCAACACAGCGUGGCAAAGUGGCUGUGGCUAGACUGCCUCUCUGGAUUCCUCGUCACUCAGCAGGGCAUCUCUGAGAGAAAUGCC [A31U U52A],1.73
17,UACGUAGGUAGUUUUCCCCUGGUAGUGCUAAGGGGGCCUGGAAGUUUGGACUGGGCAGAGCUCAACACAGCGUGGCAAAGUGGCUGUGGCUAGACUGCCUCUCUGGAUUCCUCGUCACUCAGCAGGGCAUCUCUGAGAGAAAUGCC [G10A A22G],1.09
18,UACGUAGGUGGUUUUCCCCUGAUAGUGCUAAGGGGGCCUGGAAGUUUGGACUGGGCAGAGCCCAGCACAGCGUGGCAAAGUGGCUGUGGCUAGACUGCCUCUCUGGAUUCCUCGUCACUCAGCAGGGCAUCUCUGAGAGAAAUGCC [U62C A65G],0.1
19,UACGUAGGUGGUUUUCCCCUGAUAGUGCUAAGGGGGCCUGGAAGUUUGGACUGGGCAGAGCUCAACACAGCGUGGCAAAGUGUCUGUGGCUAGACUGCCUCUCUGGAUUCCUCGUCACUCAGCAGGGCAUCUCUGAGAGAAGUGCC [G83U A142G],0.44
20,UACGUAGGUGGUUUUCCCCUGAUAGUGCUAAGGGGGCCUGGAAGUUUGGACUGGGCAGAGCUCAACACAGCGUGGCAAGGUGGCUGUGGCUAGACUGCCUCUCUGGAUUCCUUGUCACUCAGCAGGGCAUCUCUGAGAGAAAUGCC [A79G C113U],0.75
